How the values were obtained:
[1] = biological target: recombinant purified neutrophil adhesion inhibitor NIF (rNIF) of the hookworm Ancylostoma caninum (Ancylostoma caninum); experiment: ELISA
[2] = biological target: recombinant purified neutrophil adhesion inhibitor NIF (rNIF) of the hookworm Ancylostoma caninum (Ancylostoma caninum); experiment: flow cytometry on cells

IC50 [1]: 1 nM | IC50 [2]: 1 nM
Substance: recombinant CD11b A-domain (r11bA), wild type (domain or fragment)

— article PMC2120307
